“And” between values parts separate entries of the source, which are not always exact repeats. Equal values may be shown once.
What was measured:
[1] = target: TLR4-TMICL (transmembrane domain and whole intracellular linker region of human TLR4, residues 624-670) (human); experiment: NMR titration; 1H,15N-TROSY spectra at various lipid(detergent)-to-protein ratios (LPR) in DPC micelles; populations of the states from cross-peak intensities; 45 °C; 20 mM phosphate buffer pH 6.0-6.5; monomer, dimer and higher oligomer
[2] = target: His657 (UniProt position 657, …); experiment: NMR; details: 45 °C (Methods: all NMR experiments), supplementary figure captions for the same samples state 40 °C, not stated (20 mM phosphate, no added salt mentioned), Monomeric, helical, membrane-mimetic-embedded TLR4-TMICL in anionic bicelles
[3] = target: the molecule itself; experiment: NMR titration; 1H,15N-TROSY spectra at various lipid(detergent)-to-protein ratios (LPR) in DPC micelles; populations of the states from cross-peak intensities; 45 °C; 20 mM phosphate buffer pH 6.0-6.5; monomer, dimer and higher oligomer

TLR4-TMICL (transmembrane domain and whole intracellular linker region of human TLR4, residues 624-670) (domain or fragment)
stoichiometry N [1]: 2 and 3

MNITSQMNKTIIGVSVLSVLVVSVVAVLVYKFYFHLLMLAGCIKYGRG
pKa [2]: 6.16 ± 0.02

B1: TLR4-TM (transmembrane domain of human TLR4 with the truncated ICL region, residues 624-657) (domain or fragment)
chain: MNITSQMNKTIIGVSVLSVLVVSVVAVLVYKFYFH
notes: not part of the stated range 624-657; human TLR4, predicted (UniProt) transmembrane and several juxtamembrane residues 624-657; 35 residues as printed; uniformly 13C/15N-labelled for NMR; cloned into pET22b by NdeI and HindIII; also called TLR-TM; source: continuous exchange cell-free expression (S30 extract of E. coli Rosetta(DE3)pLysS), as a precipitate; purified by size-exclusion …
stoichiometry N [3]: 2 and 3

— publication PMC5537299, “Spatial structure of TLR4 transmembrane domain in bicelles provides the insight into the receptor activation mechanism” (Scientific Reports, 2017)
